Results reported in ChEMBL document CHEMBL3508693.

What was measured:
Format in all cases: ADME, microsomes
[1] = substrate: COCCCOc1cc(C[C@@H](C[C@H](N)[C@@H](O)C[C@H](C(=O)NCC(C)(C)C(N)=O)C(C)C)C(C)C)ccc1OC; assay: Enzyme kinetics constant (Km value) for CYP2E1 was determined in human liver microsome incubated with [14C]SPP100 hemifumarate
[2] = substrate: COCCCOc1cc(C[C@@H](C[C@H](N)[C@@H](O)C[C@H](C(=O)NCC(C)(C)C(N)=O)C(C)C)C(C)C)ccc1OC; assay: Enzyme kinetics constant (Km value) for CYP4F3B was determined in human liver microsome incubated with [14C]SPP100 hemifumarate
[3] = substrate: COCCCOc1cc(C[C@@H](C[C@H](N)[C@@H](O)C[C@H](C(=O)NCC(C)(C)C(N)=O)C(C)C)C(C)C)ccc1OC; assay: Enzyme kinetics constant (Km value) for CYP2D6 was determined in human liver microsome incubated with [14C]SPP100 hemifumarate
[4] = substrate: COCCCOc1cc(C[C@@H](C[C@H](N)[C@@H](O)C[C@H](C(=O)NCC(C)(C)C(N)=O)C(C)C)C(C)C)ccc1OC; assay: Enzyme kinetics constant (Km value) for CYP2J2 was determined in human liver microsome incubated with [14C]SPP100 hemifumarate
[5] = substrate: COCCCOc1cc(C[C@@H](C[C@H](N)[C@@H](O)C[C@H](C(=O)NCC(C)(C)C(N)=O)C(C)C)C(C)C)ccc1OC; assay: Enzyme kinetics constant (Km value) for CYP3A5 was determined in human liver microsome incubated with [14C]SPP100 hemifumarate
[6] = substrate: COCCCOc1cc(C[C@@H](C[C@H](N)[C@@H](O)C[C@H](C(=O)NCC(C)(C)C(N)=O)C(C)C)C(C)C)ccc1OC; assay: Enzyme kinetics constant (Km value) for CYP3A7 was determined in human liver microsome incubated with [14C]SPP100 hemifumarate
[7] = substrate: COCCCOc1cc(C[C@@H](C[C@H](N)[C@@H](O)C[C@H](C(=O)NCC(C)(C)C(N)=O)C(C)C)C(C)C)ccc1OC; assay: Enzyme kinetics constant (Km value) for CYP4F2 was determined in human liver microsome incubated with [14C]SPP100 hemifumarate
[8] = substrate: COCCCOc1cc(C[C@@H](C[C@H](N)[C@@H](O)C[C@H](C(=O)NCC(C)(C)C(N)=O)C(C)C)C(C)C)ccc1OC; assay: Enzyme kinetics constant (Km value) for CYP4A11 was determined in human liver microsome incubated with [14C]SPP100 hemifumarate

B1: Cytochrome P450 2E1 (Homo sapiens) (protein)
chain: MSALGVTVALLVWAAFLLLVSMWRQVHSSWNLPPGPFPLPIIGNLFQLELKNIPKSFTRLAQRFGPVFTLYVGSQRMVVMHGYKAVKEALLDYKDEFSGRGDLPAFHAHRDRGIIFNNGPTWKDIRRFSLTTLRNYGMGKQGNESRIQREAHFLLEALRKTQGQPFDPTFLIGCAPCNVIADILFRKHFDYNDEKFLRLMYLFNENFHLLSTPWLQLYNNFPSFLHYLPGSHRKVIKNVAEVKEYVSERVKEHHQSLDPNCPRDLTDCLLVEMEKEKHSAERLYTMDGITVTVADLFFAGTETTSTTLRYGLLILMKYPEIEEKLHEEIDRVIGPSRIPAIKDRQEMPYMDAVVHEIQRFITLVPSNLPHEATRDTIFRGYLIPKGTVVVPTLDSVLYDNQEFPDPEKFKPEHFLNENGKFKYSDYFKPFSTGKRVCAGEGLARMELFLLLCAILQHFNLKPLVDPKDIDLSPIHIGFGCIPPRYKLCVIPRS
[1]
  Km: 31.9 µM
  Vmax: 4.62e-05 µmol/min/mg

B2: Cytochrome P450 4F3 (Homo sapiens) (protein)
chain: MPQLSLSSLGLWPMAASPWLLLLLVGASWLLARILAWTYTFYDNCCRLRCFPQPPKRNWFLGHLGLIHSSEEGLLYTQSLACTFGDMCCWWVGPWHAIVRIFHPTYIKPVLFAPAAIVPKDKVFYSFLKPWLGDGLLLSAGEKWSRHRRMLTPAFHFNILKPYMKIFNESVNIMHAKWQLLASEGSARLDMFEHISLMTLDSLQKCVFSFDSHCQEKPSEYIAAILELSALVTKRHQQILLYIDFLYYLTPDGQRFRRACRLVHDFTDAVIQERRRTLPSQGVDDFLQAKAKSKTLDFIDVLLLSKDEDGKKLSDEDIRAEADTFMFEGHDTTASGLSWVLYHLAKHPEYQERCRQEVQELLKDREPKEIEWDDLAQLPFLTMCIKESLRLHPPVPAVSRCCTQDIVLPDGRVIPKGIICLISVFGTHHNPAVWPDPEVYDPFRFDPKNIKERSPLAFIPFSAGPRNCIGQAFAMAEMKVVLGLTLLRFRVLPDHTEPRRKPELVLRAEGGLWLRVEPLS
[2]
  Km: 5 µM
  Vmax: 0.000121 µmol/min/mg

B3: Cytochrome P450 2D6 (Homo sapiens) (protein)
chain: MGLEALVPLAVIVAIFLLLVDLMHRRQRWAARYPPGPLPLPGLGNLLHVDFQNTPYCFDQLRRRFGDVFSLQLAWTPVVVLNGLAAVREALVTHGEDTADRPPVPITQILGFGPRSQGVFLARYGPAWREQRRFSVSTLRNLGLGKKSLEQWVTEEAACLCAAFANHSGRPFRPNGLLDKAVSNVIASLTCGRRFEYDDPRFLRLLDLAQEGLKEESGFLREVLNAVPVLLHIPALAGKVLRFQKAFLTQLDELLTEHRMTWDPAQPPRDLTEAFLAEMEKAKGNPESSFNDENLRIVVADLFSAGMVTTSTTLAWGLLLMILHPDVQRRVQQEIDDVIGQVRRPEMGDQAHMPYTTAVIHEVQRFGDIVPLGVTHMTSRDIEVQGFRIPKGTTLITNLSSVLKDEAVWEKPFRFHPEHFLDAQGHFVKPEAFLPFSAGRRACLGEPLARMELFLFFTSLLQHFSFSVPTGQPRPSHHGVFAFLVSPSPYELCAVPR
[3]
  Km: 73.6 µM
  Vmax: 0.00548 µmol/min/mg

B4: Cytochrome P450 2J2 (Homo sapiens) (protein)
chain: MLAAMGSLAAALWAVVHPRTLLLGTVAFLLAADFLKRRRPKNYPPGPWRLPFLGNFFLVDFEQSHLEVQLFVKKYGNLFSLELGDISAVLITGLPLIKEALIHMDQNFGNRPVTPMREHIFKKNGLIMSSGQAWKEQRRFTLTALRNFGLGKKSLEERIQEEAQHLTEAIKEENGQPFDPHFKINNAVSNIICSITFGERFEYQDSWFQQLLKLLDEVTYLEASKTCQLYNVFPWIMKFLPGPHQTLFSNWKKLKLFVSHMIDKHRKDWNPAETRDFIDAYLKEMSKHTGNPTSSFHEENLICSTLDLFFAGTETTSTTLRWALLYMALYPEIQEKVQAEIDRVIGQGQQPSTAARESMPYTNAVIHEVQRMGNIIPLNVPREVTVDTTLAGYHLPKGTMILTNLTALHRDPTEWATPDTFNPDHFLENGQFKKREAFMPFSIGKRACLGEQLARTELFIFFTSLMQKFTFRPPNNEKLSLKFRMGITISPVSHRLCAVPQV
[4]
  Km: 67 µM
  Vmax: 0.000604 µmol/min/mg

B5: Cytochrome P450 3A5 (Homo sapiens) (protein)
chain: MDLIPNLAVETWLLLAVSLVLLYLYGTRTHGLFKRLGIPGPTPLPLLGNVLSYRQGLWKFDTECYKKYGKMWGTYEGQLPVLAITDPDVIRTVLVKECYSVFTNRRSLGPVGFMKSAISLAEDEEWKRIRSLLSPTFTSGKLKEMFPIIAQYGDVLVRNLRREAEKGKPVTLKDIFGAYSMDVITGTSFGVNIDSLNNPQDPFVESTKKFLKFGFLDPLFLSIILFPFLTPVFEALNVSLFPKDTINFLSKSVNRMKKSRLNDKQKHRLDFLQLMIDSQNSKETESHKALSDLELAAQSIIFIFAGYETTSSVLSFTLYELATHPDVQQKLQKEIDAVLPNKAPPTYDAVVQMEYLDMVVNETLRLFPVAIRLERTCKKDVEINGVFIPKGSMVVIPTYALHHDPKYWTEPEEFRPERFSKKKDSIDPYIYTPFGTGPRNCIGMRFALMNMKLALIRVLQNFSFKPCKETQIPLKLDTQGLLQPEKPIVLKVDSRDGTLSGE
[5]
  Km: 28.7 µM
  Vmax: 0.00135 µmol/min/mg

B6: Cytochrome P450 3A7 (Homo sapiens) (protein)
chain: MDLIPNLAVETWLLLAVSLILLYLYGTRTHGLFKKLGIPGPTPLPFLGNALSFRKGYWTFDMECYKKYRKVWGIYDCQQPMLAITDPDMIKTVLVKECYSVFTNRRPFGPVGFMKNAISIAEDEEWKRIRSLLSPTFTSGKLKEMVPIIAQYGDVLVRNLRREAETGKPVTLKHVFGAYSMDVITSTSFGVSIDSLNNPQDPFVENTKKLLRFNPLDPFVLSIKVFPFLTPILEALNITVFPRKVISFLTKSVKQIKEGRLKETQKHRVDFLQLMIDSQNSKDSETHKALSDLELMAQSIIFIFAGYETTSSVLSFIIYELATHPDVQQKVQKEIDTVLPNKAPPTYDTVLQLEYLDMVVNETLRLFPVAMRLERVCKKDVEINGMFIPKGVVVMIPSYVLHHDPKYWTEPEKFLPERFSKKNKDNIDPYIYTPFGSGPRNCIGMRFALVNMKLALVRVLQNFSFKPCKETQIPLKLRFGGLLLTEKPIVLKAESRDETVSGA
[6]
  Km: 32.6 µM
  Vmax: 0.000113 µmol/min/mg

B7: Cytochrome P450 4F2 (Homo sapiens) (protein)
chain: MSQLSLSWLGLWPVAASPWLLLLLVGASWLLAHVLAWTYAFYDNCRRLRCFPQPPRRNWFWGHQGMVNPTEEGMRVLTQLVATYPQGFKVWMGPISPLLSLCHPDIIRSVINASAAIAPKDKFFYSFLEPWLGDGLLLSAGDKWSRHRRMLTPAFHFNILKPYMKIFNESVNIMHAKWQLLASEGSACLDMFEHISLMTLDSLQKCVFSFDSHCQEKPSEYIAAILELSALVSKRHHEILLHIDFLYYLTPDGQRFRRACRLVHDFTDAVIQERRRTLPSQGVDDFLQAKAKSKTLDFIDVLLLSKDEDGKKLSDEDIRAEADTFMFEGHDTTASGLSWVLYHLAKHPEYQERCRQEVQELLKDREPKEIEWDDLAHLPFLTMCMKESLRLHPPVPVISRHVTQDIVLPDGRVIPKGIICLISVFGTHHNPAVWPDPEVYDPFRFDPENIKERSPLAFIPFSAGPRNCIGQTFAMAEMKVVLALTLLRFRVLPDHTEPRRKPELVLRAEGGLWLRVEPLS
[7]
  Km: 11.3 µM
  Vmax: 8.91e-05 µmol/min/mg

B8: Cytochrome P450 4A11 (Homo sapiens) (protein)
chain: MSVSVLSPSRLLGDVSGILQAASLLILLLLLIKAVQLYLHRQWLLKALQQFPCPPSHWLFGHIQELQQDQELQRIQKWVETFPSACPHWLWGGKVRVQLYDPDYMKVILGRSDPKSHGSYRFLAPWIGYGLLLLNGQTWFQHRRMLTPAFHYDILKPYVGLMADSVRVMLDKWEELLGQDSPLEVFQHVSLMTLDTIMKCAFSHQGSIQVDRNSQSYIQAISDLNNLVFSRVRNAFHQNDTIYSLTSAGRWTHRACQLAHQHTDQVIQLRKAQLQKEGELEKIKRKRHLDFLDILLLAKMENGSILSDKDLRAEVDTFMFEGHDTTASGISWILYALATHPKHQERCREEIHSLLGDGASITWNHLDQMPYTTMCIKEALRLYPPVPGIGRELSTPVTFPDGRSLPKGIMVLLSIYGLHHNPKVWPNPEVFDPFRFAPGSAQHSHAFLPFSGGSRNCIGKQFAMNELKVATALTLLRFELLPDPTRIPIPIARLVLKSKNGIHLRLRRLPNPCEDKDQL
[8]
  Km: 3.1 µM
  Vmax: 1.55e-05 µmol/min/mg
